According to patent US20160075790A1 (Bristol-Myers Squibb, published 2016):
“And” between values parts separate entries of the source, which are not always exact repeats. Equal entries are not always repeated.

T1: human isoleucine zipper-CD40L (IZ-hCD40L) (human, UniProt P29965 113-261)
T1 sequence: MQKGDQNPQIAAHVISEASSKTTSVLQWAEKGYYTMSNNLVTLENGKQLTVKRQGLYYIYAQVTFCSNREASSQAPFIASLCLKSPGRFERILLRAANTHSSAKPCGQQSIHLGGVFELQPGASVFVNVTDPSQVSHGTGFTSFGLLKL


Biological target: T1, human isoleucine zipper-CD40L …
Test: cell-based or functional assay

Binder | hIZCD40L-driven Human B Cell Proliferation EC50
BMS2h-766 (other) VH: EVQLLESGGGLVQPGGSLRLSCAASGFTFGDYGMSWVRQAPGKGLEWVSYIDPLGRLTYYADSVKGRFTISRDNSKNTLYLQMNSLRAEDTAVYYCAEDLSSLQYGVSPNFDYWGQGTLVTVSS | > 7 µM
BMS2h-774 (other) VH: EVQLLESGGGLVQPGGSLRLSCAASGFTFREYDMGWVRQAPGKGLEWVSLISPPGRTTYYADSVKGRFTISRDNSKNTLYLQMNSLRAEDTAVYYCAKVVILGYTNRFDYWGQGTLVTVSS | > 7 µM
BMS2h-781 (other) VH: EVQLLESGGGLVQPGGSLRLSCAASGFTFTDYTMYWVRQAPGKGLEWVSKISPSGRSTYYADSVKGRFTISRDNSKNTLYLQMNSLRAEDTAVYYCAKDPFGFDYWGQGTLVTVSS | > 7 µM
BMS2h-747 (other) VH: EVQLLESGGGLVQPGGSLRLSCAASGFTFDDGTMGWARQAPGKGLEWVSLILPSGSRTYYADSVKGRFTISRDNSKNTLYLQMNSLRAEDTAVYYCAKHSLTNRPFDYWGQGTLVTVSS | > 7 µM
BMS2h-785 (other) VL: DIQMTQSPSSLSASVGDRVTITCRASQPIYGWLNWYQQKPGKAPKLLIYLTSGLQSGVPSRFSGSGSGTDFTLTISSLQPEDFATYYCQQIHSSPFTFGQGTKVEIKR | 3.7 µM and > 7 µM
BMS2h-752 (other) VH: EVQLLESGGGLVQPGGSLRLSCAASGFTFSDYAMAWVRQAPGKGLEWVSRIGVEGGDTYYADSVKGRFTISRDNSKNTLYLQMNSLRAEDTAVYYCAKLLRLYRLGFDYWGQGTLVTVSS | > 7 µM
BMS2h-784 (other) VH: EVQLLESGGGLVQPGGSLRLSCAASGFTFDRAGMGWVRQAPGKGLEWVSLIGRGGDITYYADSVKGRFTISRDNSKNTLYLQMNSLRAEDTAVYYCAKIRNLHWDVGRQFDYWGQGTLVTVSS | > 4.7 µM
BMS2h-765 (other) VH: EVQLLESGGGLVQPGGSLRLSCAASGFTFSAYTMEWVRQAPGKGLEWVSSIGVTGYDTYYADSVKGRFTISRDNSKNTLYLQMNSLRAEDTAVYYCAKGGQGFDYWGQGTLVTVSS | > 7 µM
BMS2h-775 (other) VH: EVQLLESGGGLVQPGGSLRLSCAASGFTFPNYGMLWVRQAPGKGLEWVSSINSSGMETYYADSVKGRFTISRDNSKNTLYLQMNSLRAEDTAVYYCAKFFRLNDHNSVFGFDYWGQGTLVTVSS | > 7 µM
BMS2h-757 (other) VH: EVQLLESGGGLVQPGGSLRLSCAASGFTFKEYNMAWVRQAPGKGLEWVSSINFAGRTTYYADSVKGRFTISRDNSKNTLYLQMNSLRAEDTAVYYCAKLSLPLDIFSFDYWGQGTLVTVSS | 6.4 µM
BMS2h-783 (other) VH: EVQLLESGGGLVQPGGSLRLSCAASGFTFRDYDMGWVRQAPGKGLEWVSTISPLGHFTYYADSVKGRFTISRDNSKNTLYLQMNSLRAEDTAVYYCAKSGFHEYTEGFDYWGQGTLVTVSS | > 2 µM
BMS2h-492 (other) VL: DIQMTQSPSSLSASVGDRVTITCRASQAIELNLEWYQQKPGKAPKLLIYDASMLQSGVPSRFSGSGSGTDFTLTISSLQPEDFATYYCQQYDVYPPTFGQGTKVEIKR | > 7 µM
BMS2h-492-5 (other) VL: DIQMNQSPSSLSASVGDRVSITCRASQAIEHNLEWYQQKPGKAPKLLIYDASMLQSGVPSRFSGSGSGTDFTLTISSLQPEDFATYYCQQYDAYPPTFGQGTKVEIKR | 2.3 µM
BMS2h-492-6 (other) VL: DIQMTQSPSSLSASVGDRVTITCRASQAIESNLEWYQQKPGKAPKLLIYDASMLQSGVPSRFSGSGSGTDFTLTISSLQPEDFATYYCQQYDVYPPTFGQGTKVEIKR | 6.3 µM
BMS2h-758 (other) VH: EVQLLESGGGLVQPGGSLRLSCAASGFTFGDYGMNWVRQAPGKGLEWVSHISSNGRFTYYADSVKGRFTISRDNSKNTLYLQMNSLRAEDTAVYYCAETSGYFDYWGQGTLVTVSS | 5.9 µM
BMS2h-758-1 (other) VH: EVQLLESGGGLVQPGGSLRLSCAASGFTFGDYGMNWVRQAPGKGLEWVSHISSNGRFTYYADSVKGRFTISRDNSKNMLYLRMNSLRAEDTAVYYCAETSGYYEYWGQGTLVTVSS | > 7 µM
BMS2h-758-5 (other) VH: EVQLLESGGGLVQPGGSLRLSCAASGFAFGDYGMNWVRQAPGKGLEWVSHISSNGRFTYYADSVKGRFTISRDNSKNTLYLQMNSLRAEDTAVYYCAETSGYFEYWGQGTLVTVSS | > 7 µM
BMS2h-758-2 (other) VH: EVQLLESGGGLVQPGGSLRLSCAASGFTFGDYGMNWVRQAPGKGLEWVSHISSNGRFTYYADSVKGRFTISRDNSKNTLYLQMNSLRAEDTAVYYCAETSGYFEYWGQGTLVTVSS | > 7 µM
BMS2h-758-3 (other) VH: EVQLLESGGGLVQPGGSLRLSCAASGFTFGDYGMNWVRQAPGKGLEWVSHISSNGRFTYYADSVKGRFTISRDNSKNTLYLQMNSLRAEDTAVYYCAETSSYFEYWGQGTLVTVSS | > 7 µM
BMS2h-758-4 (other) VH: EVQLLESGGGLVQPGGSLRLSCAASGFTFGDYGMNWVRQAPGKGLEWVSHISSNGRFTYYADSVKGRFTISRDNSKNTLFLQMNSLRAEDTAVYYCAETSGYYEYWGHGTLVTVSS | > 7 µM
BMS2h-782 (other) VH: EVQLLESGGGLVQPGGSLRLSCAASGFTFDDAEMFWVRQAPGKGLEWVSSIDARGLTTYYADPVKGRFTISRDNSKNTLYLQMNSLRAEDTAVYYCAEATSAMYPFDYWGQGTLVTVSS | > 7 µM
BMS2h-754 (other) VH: EVQLLESGGGLVQPGGSLRLSCAASGFTFSRYDMVWVRQAPGKGLEWVSRINSMGLATYYADSVKGRFTISRDNSKNTLYLQMNSLRAEDTAVYYCAKDYSVAPHGYPLGFDYWGQGTLVTVSS | 6.6 µM
BMS2h-780 (other) VH: EVQLLESGGGLVQPGGSLRLSCAASGFTFGSYTMMWVRQAPGKGLEWVSEIDRTGERTYYADSVKGRFTISRDNSKNTLYLQMNSLRAEDTAVYYCAEPGFASLPFDYWGQGTLVTVSS | > 7 µM
BMS2h-437 (other) VL: DIQMTQSPSSLSASVGDRVTITCRASTPIGTMLDWYQQKPGKAPKLLIGHSSWLQSGVPSRFSGSGSGTDFTLTISSLQPEDFATYYCGQHVRPPATFGQGTKVEIKR | 5.7 µM
